Source: patent US20200347137A1

biological target: PD-L1 recombinant protein (human) (UniProt Q9NZQ7); assay: ForteBio Octet RED96, PD-L1 immobilised, antibody in solution
Sequence (Q9NZQ7 19-238 limits assumed): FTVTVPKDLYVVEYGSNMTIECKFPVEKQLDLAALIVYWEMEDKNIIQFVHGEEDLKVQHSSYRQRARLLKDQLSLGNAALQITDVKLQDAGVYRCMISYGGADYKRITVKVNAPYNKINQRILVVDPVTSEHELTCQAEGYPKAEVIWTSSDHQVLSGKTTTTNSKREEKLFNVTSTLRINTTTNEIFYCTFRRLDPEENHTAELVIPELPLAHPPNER

Row | Kd | koff | kon | Binder
1 | 0.917 nM | 0.000461 s⁻¹ | 503000 M⁻¹ s⁻¹ | PL230C6 scFv-Fc (Fc fusion, part only; not given: linker and Fc, part only) chain, part: QSVEESGGGLVQPGGSLRLSCTASGIDLNTYDMIWVRQAPGKGLEWVGIITYSGSRYYANWAKGRFTISKDNTKNTVYLQMNSLRAEDTAVYYCARDYMSGSHLWGQGTLVTVSSGGGGSGGGGSGGGGSGGGGSAYDMTQSPSSVSASVGDRVTIKCQASEDIYSFLAWYQQKPGKAPKLLIHSASSLASGVPSRFSGSGSGTDFTLTISSLQPEDFATYYCQQGYGKNNVDNAFGGGTKVEIK
2 | 1.42 nM | 0.00055 s⁻¹ | 387000 M⁻¹ s⁻¹ | PL004B9 scFv-Fc (Fc fusion, part only; not given: linker and Fc, part only) chain, part: EVQLVESGGGLVQPGGSLRLSCTVSGIDLSVINMGWVRQAPGKGLEWIGTITYVGNTYYASWAKGRFTISKTSTTVDLKITSPTTEDTAVYYCARESGTIYYSYFNLWGQGTLVTVSSGGGGSGGGGSGGGGSGGGGSAFELTQSPSSLSASVGDRVTIKCQASESISNYLSWYQQIPGKVPKLLIYYASNLASGVPSRFSGSGSGTDFTLTISSLQPEDVATYYCQSYYGGGSAYTFGGGTKVEIK
3 | 0.597 nM | 0.000303 s⁻¹ | 508000 M⁻¹ s⁻¹ | PL221G5 scFv-Fc (Fc fusion, part only; not given: linker and Fc, part only) chain, part: EVQLLESGGGLVQPGGSLRLSCAASGFSFSSGYDMCWVRQAPGKGLEWIACIAAGSAGITYDANWAKGRFTISRDNSKNTLYLQMNSLRAEDTAVYYCARSAFSFDYAMDLWGQGTLVTVSSGGGGSGGGGSGGGGSGGGGSDIQMTQSPSTLSASVGDRVTITCQASQSISSHLNWYQQKPGKAPKLLIYKASTLASGVPSRFSGSGSGTEFTLTISSLQPDDFATYYCQQGYSWGNVDNVFGGGTKVEIK
